The values below come from PMC12496170.

The test deals with Spike-Accum bioconjugate (Accum-bioconjugated Sp protein) (SARS-CoV-2) (UniProt P0DTC2). Nature of the test: cryo-EM structure.

As for “Spike-Accum bioconjugate (Accum-bioconjugated Sp protein) (from UniProt P0DTC2 14-1213)”, the stoichiometry N amounted to 3.

In general, stoichiometry N refers to the number of molecules, sites or subunits per partner or assembly.
